In patent publication US20220323583A1, “Pharmaceutical Formulations of Bi-Specific Diabodies and Use of the Same” (MacroGenics, Inc., priority 2019, published 2022):

Tests used:
Human CD3ε/δ = Human CD3ε/δ (Homo sapiens, UniProt P07766); test: Binding of DART-A to CD3 (ka, kd, KD)
[1] = target: T1, soluble recombinant human IL-3 receptor alpha (rhIL3Rα) (Homo sapiens, UniProt P26951); test: ELISA (rhIL3Rα) DART-A quantitation assay (concentration, protein recovery); details: for Actual Concentration: target 20 ng/mL
T1 construct: soluble recombinant human IL-3 receptor alpha (rhIL3Rα)
T1 sequence (P26951 19-305 limits assumed): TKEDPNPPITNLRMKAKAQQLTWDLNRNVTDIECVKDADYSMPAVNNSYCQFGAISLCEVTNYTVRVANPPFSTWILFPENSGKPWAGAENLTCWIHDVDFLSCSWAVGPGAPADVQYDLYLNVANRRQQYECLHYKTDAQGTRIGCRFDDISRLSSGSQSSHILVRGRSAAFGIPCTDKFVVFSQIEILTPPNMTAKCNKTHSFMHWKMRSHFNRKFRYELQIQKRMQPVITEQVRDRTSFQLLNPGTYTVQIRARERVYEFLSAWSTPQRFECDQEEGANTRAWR
Protocol: In brief, the assay plate was coated with soluble recombinant human IL-3 receptor alpha (rhIL3Rα) overnight. […] After addition of MSD Read Buffer, the plate was inserted into the Sector Imager 2400 Plate Reader. When a voltage was applied to the plate electrodes, the bound Sulfo-TAG label produces an ECL signal, which was captured by the plate reader. A quantitative measure of the ECL signal emitted by each well was recorded, and the ECL counts emitted by the standard calibrators were used to generate a standard curve using a 4-parameter logistic (4PL) fit.

Kasumi-3 = test: Redirected killing of target cell line; type: cell-based, human
CD123+ cells = test: DART-A infusion in cynomolgus monkeys; type: in vivo
From the text: Upregulation of granzyme B and perforin levels in both CD8 and CD4 T cells was observed.
A decrease in circulating T cells also occurred, but recovered to baseline before the subsequent infusion in monkeys on the 4-day dose schedule, consistent with DART-A-mediated mobilization.

Cynomolgus CD123-His = test: Binding of DART-A to CD123 (ka, kd, KD); design: species or system cynomolgus monkey
THP-1 = test: Redirected killing of target cell line; type: cell-based
[2] = Capillary isoelectric focusing (cIEF), charge variants; type: physicochemical; details: for cIEF % AV (acidic variants) / cIEF % BV (basic variants) / cIEF % Main Peak: 0.1 mg/mL solution, Stabilizer 2
Protocol: cIEF analysis was performed to characterize drug product charge variants. The configuration included a iCE System with Alcott 720NV Autosampler. Samples were prepared to a final concentration of 0.1 mg/mL and centrifuged at 5±3° C. for 40 minutes prior to analysis.

RS4-11 = test: Redirected killing of target cell line; type: cell-based
Osmolality = type: physicochemical; details: Stabilizer 2
U937 cells = test: Activity against CD123-negative targets; type: cell-based
[3] = Post Infusion (Infusion Time = 96 Hrs)
[4] = Post Storage (Time = 72 Hrs), room temperature

Human CD3ε/δ, sequence (P07766 23-126 limits assumed): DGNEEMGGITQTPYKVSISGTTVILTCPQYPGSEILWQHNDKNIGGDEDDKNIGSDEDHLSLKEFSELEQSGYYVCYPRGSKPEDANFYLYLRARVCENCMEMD
Human CD3ε/δ, sequence (P04234 22-105 partner limits assumed): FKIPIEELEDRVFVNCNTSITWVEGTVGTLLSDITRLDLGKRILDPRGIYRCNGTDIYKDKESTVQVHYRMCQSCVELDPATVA

B1: DART-A: sequence-optimized CD123×CD3 bispecific diabody; chains SEQ ID NO:42 and SEQ ID NO:44 covalently bonded by a disulfide bond (protein)
chain 1: QAVVTQEPSLTVSPGGTVTLTCRSSTGAVTTSNYANWVQQKPGQAPRGLIGGTNKRAPWTPARFSGSLLGGKAALTITGAQAEDEADYYCALWYSNLWVFGGGTKLTVLGGGGSGGGGEVQLVQSGAELKKPGASVKVSCKASGYTFTDYYMKWVRQAPGQGLEWIGDIIPSNGATFYNQKFKGRVTITVDKSTSTAYMELSSLRSEDTAVYYCARSHLLRASWFAYWGQGTLVTVSSGGCGGGEVAALEKEVAALEKEVAALEKEVAALEK
chain 2: DFVMTQSPDSLAVSLGERVTMSCKSSQSLLNSGNQKNYLTWYQQKPGQPPKLLIYWASTRESGVPDRFSGSGSGTDFTLTISSLQAEDVAVYYCQNDYSYPYTFGQGTKLEIKGGGSGGGGEVQLVESGGGLVQPGGSLRLSCAASGFTFSTYAMNWVRQAPGKGLEWVGRIRSKYNNYATYYADSVKDRFTISRDDSKNSLYLQMNSLKTEDTAVYYCVRHGNFGNSYVSWFAYWGQGTLVTVSSGGCGGGKVAALKEKVAALKEKVAALKEKVAALKE
modifications: interchain disulfide bond; First Polypeptide Chain of DART-A; Second Polypeptide Chain of DART-A
ka (± SD) (Human CD3ε/δ): 5.7 (± 0.6) × 10^5 M^−1s^−1 | kd (± SD) (Human CD3ε/δ): 5.0 (± 0.9) × 10^−3 s^−1 | Kd (Human CD3ε/δ; read-out: KD (± SD)): 9 ± 2.3 nM | Actual Concentration ([1]; Final PS80 0.1 mg/mL, Post 24 Hr Storage and 96 Hr Admin): 19.3 ng/mL | Actual Concentration ([1]; Final PS80 0.1 mg/mL, T0): 19.9 ng/mL | Actual Concentration ([1]; Final PS80 0.12 mg/mL, Post 24 Hr Storage and 96 Hr Admin): 20.6 ng/mL | Actual Concentration ([1]; Final PS80 0.12 mg/mL, T0): 21.6 ng/mL | DART-A Concentration derived from quantitation assay ([1]; Study 1, Stabilizer 1, dual-pump infusion RT, High (5000 ng/mL), Expected or Control (T0)): 313.7 ng/mL | DART-A Concentration derived from quantitation assay ([1]; Study 1, Stabilizer 1, dual-pump infusion RT, High (5000 ng/mL), T = 24 hours): 235.2 ng/mL | DART-A Concentration derived from quantitation assay ([1]; Study 1, Stabilizer 1, dual-pump infusion RT, High (5000 ng/mL), T = 48 hours): 294.3 ng/mL | DART-A Concentration derived from quantitation assay ([1]; Study 1, Stabilizer 1, dual-pump infusion RT, High (5000 ng/mL), T = 72 hours): 254.4 ng/mL | DART-A Concentration derived from quantitation assay ([1]; Study 1, Stabilizer 1, dual-pump infusion RT, Low (100 ng/mL), Expected or Control (T0)): 10.6 ng/mL | DART-A Concentration derived from quantitation assay ([1]; Study 1, Stabilizer 1, dual-pump infusion RT, Low (100 ng/mL), T = 24 hours): 6.7 ng/mL | DART-A Concentration derived from quantitation assay ([1]; Study 1, Stabilizer 1, dual-pump infusion RT, Low (100 ng/mL), T = 48 hours): 12.9 ng/mL | DART-A Concentration derived from quantitation assay ([1]; Study 1, Stabilizer 1, dual-pump infusion RT, Low (100 ng/mL), T = 72 hours): 11.0 ng/mL | concentration as prepared, DART-A quantitation assay ([1]; Study 1, high concentration (target 5000 ng/mL)): 5067.5 ng/mL | concentration as prepared, DART-A quantitation assay ([1]; Study 1, low concentration (target 100 ng/mL)): 116.7 ng/mL | DART-A Concentration derived from quantitation assay ([1]; Study 2, Stabilizer 1, cassette 25° C., 100 rpm, High (5000 ng/mL), T = 0): 5398.7 ng/mL | DART-A Concentration derived from quantitation assay ([1]; Study 2, Stabilizer 1, cassette 25° C., 100 rpm, High (5000 ng/mL), T = 24 hours): 5241.2 ng/mL | DART-A Concentration derived from quantitation assay ([1]; Study 2, Stabilizer 1, cassette 25° C., 100 rpm, High (5000 ng/mL), T = 48 hours): 4967.5 ng/mL | DART-A Concentration derived from quantitation assay ([1]; Study 2, Stabilizer 1, cassette 25° C., 100 rpm, High (5000 ng/mL), T = 72 hours): 4916.7 ng/mL | DART-A Concentration derived from quantitation assay ([1]; Study 2, Stabilizer 1, cassette 25° C., 100 rpm, Low (100 ng/mL), T = 0): 110.1 ng/mL | DART-A Concentration derived from quantitation assay ([1]; Study 2, Stabilizer 1, cassette 25° C., 100 rpm, Low (100 ng/mL), T = 24 hours): 115.5 ng/mL | DART-A Concentration derived from quantitation assay ([1]; Study 2, Stabilizer 1, cassette 25° C., 100 rpm, Low (100 ng/mL), T = 48 hours): 103.8 ng/mL | DART-A Concentration derived from quantitation assay ([1]; Study 2, Stabilizer 1, cassette 25° C., 100 rpm, Low (100 ng/mL), T = 72 hours): 106.2 ng/mL | DART-A Concentration derived from quantitation assay ([1]; Study 3, Stabilizer 1, cassette 37° C., 100 rpm, Low (100 ng/mL), T = 0): 111.4 ng/mL | DART-A Concentration derived from quantitation assay ([1]; Study 3, Stabilizer 1, cassette 37° C., 100 rpm, Low (100 ng/mL), T = 72 hours): 99.4 ng/mL | DART-A Concentration derived from quantitation assay ([1]; Study 3, Stabilizer 1, cassette 37° C., 100 rpm, second group, target concentration not given, T = 0): 5682.9 ng/mL | DART-A Concentration derived from quantitation assay ([1]; Study 3, Stabilizer 1, cassette 37° C., 100 rpm, second group, target concentration not given, T = 72 hours): 4661.6 ng/mL | Max % Killing (Kasumi-3): 94% | levels of cytokines interferon-gamma, TNF-alpha, IL-6, IL-5, IL-4 and IL-2 (CD123+ cells; DART-A-treated animals): No elevation | pDC depletion after infusion (CD123+ cells; as little as 10 ng/kg DART-A): depleted as early as 4 days post infusion | circulating CD123+ cells (CD123+ cells; infused 4 or 7 days a week, weekly escalating doses): depletion of circulating CD123+ cells 72 h after treatment initiation | Toxicity (CD123+ cells; infused 4 or 7 days a week, weekly escalating doses, 4 weeks): limited to a minimal transient release of cytokines | ka (± SD) (Cynomolgus CD123-His): 1.5 (± 0.3) × 10^6 M^−1s^−1 | kd (± SD) (Cynomolgus CD123-His): 4.0 (± 0.7) × 10^−4 s^−1 | Max % Killing (THP-1): 40% | charge heterogeneity by cIEF ([2]; 0.1 mg/mL in Stabilizer 2 dosing solution, 72-hour RT storage and administration): minor changes within the variability of the analytical method | cIEF % AV (acidic variants) [2, 3]: 31.4% | cIEF % BV (basic variants) [2, 3]: 3.4% | cIEF % Main Peak [2, 3]: 65.2% | cIEF % AV (acidic variants) [2, 4]: 29.1% | cIEF % BV (basic variants) [2, 4]: 3.9% | cIEF % Main Peak [2, 4]: 67.0% | cIEF % AV (acidic variants) ([2]; T = 0 Hrs): 28.3% | cIEF % BV (basic variants) ([2]; T = 0 Hrs): 4.4% | cIEF % Main Peak ([2]; T = 0 Hrs): 67.3% | Max % Killing (RS4-11): 60% | Osmolality (Osmolality; 10 ng/mL dosing solution, Post Infusion (Infusion Time = 48 Hrs)): 274 mOsm/kg | Osmolality (Osmolality; 10 ng/mL dosing solution, Post Storage (T = 72 Hrs), room temperature): 275 mOsm/kg | Osmolality (Osmolality; 10 ng/mL dosing solution, T = 0): 275 mOsm/kg | Osmolality (Osmolality; 20 ng/mL dosing solution, Post Infusion (Infusion Time = 96 Hrs)): 276 mOsm/kg | Osmolality (Osmolality; 20 ng/mL dosing solution, Post Storage (T =72 Hrs), room temperature): 276 mOsm/kg | Osmolality (Osmolality; 20 ng/mL dosing solution, T = 0): 276 mOsm/kg | Osmolality (Osmolality; 1250 ng/mL dosing solution, Post Infusion (Infusion Time = 48 Hrs)): 276 mOsm/kg | Osmolality (Osmolality; 1250 ng/mL dosing solution, Post Storage (T = 72 Hrs), room temperature): 275 mOsm/kg | Osmolality (Osmolality; 1250 ng/mL dosing solution, T = 0): 275 mOsm/kg | activity against CD123-negative targets (U937 cells): No activity
